Target: Nb4 × 3 (trimeric Nb4, three VHH domains in tandem) (dromedary)
Test: ELISA

B1: SARS-CoV-1 RBD-Fc (Fc fusion)
chain: not shown
- binding result: binds

From PMC12064060 (mAbs, 2025)
